Experimental findings from patent publication US20160108110A1 (Novartis, published 2016) are described below.

For assay [1], the target named is T1, Human ANGPTL4(26-406)-FLAG-His6-Avi (human, UniProt Q9BY76 24-406, biotin on the C-terminal Avi tag in the biotinylated preparations (immobilised form in SET, ELISA and Octet)).
T1 sequence: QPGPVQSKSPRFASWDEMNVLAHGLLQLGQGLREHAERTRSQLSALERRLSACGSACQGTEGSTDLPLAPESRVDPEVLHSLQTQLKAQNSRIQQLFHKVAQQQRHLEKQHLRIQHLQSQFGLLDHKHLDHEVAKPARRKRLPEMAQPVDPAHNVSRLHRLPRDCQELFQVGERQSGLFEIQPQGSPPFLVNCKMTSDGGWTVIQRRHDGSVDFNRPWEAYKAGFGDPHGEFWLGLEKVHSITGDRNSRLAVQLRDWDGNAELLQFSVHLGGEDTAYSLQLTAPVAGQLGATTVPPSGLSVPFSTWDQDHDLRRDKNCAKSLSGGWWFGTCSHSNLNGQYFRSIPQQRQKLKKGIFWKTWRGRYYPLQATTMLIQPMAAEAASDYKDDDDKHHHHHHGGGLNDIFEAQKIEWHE
As to the kind of experiment: cell-based or functional assay.

Assay [2] concerns the target T2, ANGPTL4-derived peptide P1 (human).
T2 construct: linear 15-amino-acid peptide derived from the N-terminal coiled coil domain of human ANGPTL4
T2 peptide: GPVQSKSPRFASWDE
Put plainly: peptide array, immobilised linear 15-mers. The protocol:
(§1) The ability of selected antibodies of invention, namely MOR022765 and MOR022770, to bind to linear 15-amino-acid peptides derived from the N-terminal coiled coil domain of human ANGPTL4 was tested. The peptides were immobilized on a glass surface, and the ability of MOR022765 and MOR022770 to bind to the immobilized peptides was evaluated using experimental methods optimized for linear peptide epitope mapping at JPT Peptide Technologies (Berlin, Germany).

The target in assay [3] is T3, ANGPTL4-derived peptide P2 (human).
T3 peptide: QSKSPRFASWDEMNV
As to the kind of experiment: peptide array, immobilised linear 15-mers. The method, then: as §1

In assay [4] the target is T4, ANGPTL4-derived peptide P4 (human).
T4 peptide: FASWDEMNVLAHGLL
Put plainly: peptide array, immobilised linear 15-mers. The method, then: as §1

Assay [5] has as its target T5, ANGPTL4-derived peptide P5 (human).
T5 peptide: WDEMNVLAHGLLQLG
Put plainly: peptide array, immobilised linear 15-mers. The protocol:
as §1

For assay [6], the target named is T6, ANGPTL4-derived peptide P7 (human).
T6 peptide: LAHGLLQLGQGLREH
As to the kind of experiment: peptide array, immobilised linear 15-mers. The protocol:
as §1

The target in assay [7] is T7, ANGPTL4-derived peptide P12 (human).
T7 peptide: AERTRSQLSALERRL
Put plainly: peptide array, immobilised linear 15-mers. The method, then: as §1

Assay [8] addresses T8, ANGPTL4-derived peptide P13 (human).
T8 construct: printed with S where human ANGPTL4 has C
T8 peptide: TRSQLSALERRLSAS
Put plainly: peptide array, immobilised linear 15-mers. The protocol: as §1

The target of assay [9] is T9, ANGPTL4-derived peptide P14 (human).
T9 construct: printed with S where human ANGPTL4 has C
T9 peptide: QLSALERRLSASGSA
As to the kind of experiment: peptide array, immobilised linear 15-mers. The method, then: as §1

Assay [10] addresses T10, ANGPTL4-derived peptide P15 (human).
T10 construct: printed with S where human ANGPTL4 has C
T10 peptide: ALERRLSASGSASQG
Put plainly: peptide array, immobilised linear 15-mers. The method, then:
as §1

Assay [11] addresses T11, ANGPTL4-derived peptide P16 (human).
T11 construct: printed with S where human ANGPTL4 has C
T11 peptide: RRLSASGSASQGTEG
As to the kind of experiment: peptide array, immobilised linear 15-mers. The method, then:
as §1

In assay [12] the target is T12, ANGPTL4-derived peptide P17 (human).
T12 construct: printed with S where human ANGPTL4 has C
T12 peptide: SASGSASQGTEGSTD
As to the kind of experiment: peptide array, immobilised linear 15-mers. The method, then: as §1

Assay [13] deals with T13, ANGPTL4-derived peptide P18 (human).
T13 construct: printed with S where human ANGPTL4 has C
T13 peptide: GSASQGTEGSTDLPL
Put plainly: peptide array, immobilised linear 15-mers. The method, then:
as §1

In assay [14] the target is T14, ANGPTL4-derived peptide P20 (human).
T14 peptide: TEGSTDLPLAPESRV
As to the kind of experiment: peptide array, immobilised linear 15-mers. The method, then: as §1

For assay [15], the target named is T15, ANGPTL4-derived peptide P21 (human).
T15 peptide: STDLPLAPESRVDPE
Put plainly: peptide array, immobilised linear 15-mers. The protocol: as §1

The target in assay [16] is T16, ANGPTL4-derived peptide P24 (human).
T16 peptide: SRVDPEVLHSLQTQL
Put plainly: peptide array, immobilised linear 15-mers. The protocol: as §1

Assay [17] concerns the target T17, ANGPTL4-derived peptide P25 (human).
T17 peptide: DPEVLHSLQTQLKAQ
Put plainly: peptide array, immobilised linear 15-mers. The method, then:
as §1

Assay [18] has as its target T18, ANGPTL4-derived peptide P26 (human).
T18 peptide: VLHSLQTQLKAQNSR
Put plainly: peptide array, immobilised linear 15-mers. The method, then:
as §1

In assay [19] the target is T19, ANGPTL4-derived peptide P27 (human).
T19 peptide: SLQTQLKAQNSRIQQ
Put plainly: peptide array, immobilised linear 15-mers. The protocol:
as §1

In assay [20] the target is T20, ANGPTL4-derived peptide P28 (human).
T20 peptide: TQLKAQNSRIQQLFH
Put plainly: peptide array, immobilised linear 15-mers. The protocol: as §1

Assay [21] has as its target T21, ANGPTL4-derived peptide P29 (human).
T21 peptide: KAQNSRIQQLFHKVA
As to the kind of experiment: peptide array, immobilised linear 15-mers. The protocol:
as §1

For assay [22], the target named is T22, ANGPTL4-derived peptide P30 (human).
T22 peptide: NSRIQQLFHKVAQQQ
As to the kind of experiment: peptide array, immobilised linear 15-mers. The method, then:
as §1

In assay [23] the target is T23, ANGPTL4-derived peptide P33 (human).
T23 peptide: KVAQQQRHLEKQHLR
Put plainly: peptide array, immobilised linear 15-mers. The method, then: as §1

For assay [24], the target named is T24, ANGPTL4-derived peptide P35 (human).
T24 peptide: RHLEKQHLRIQHLQS
Put plainly: peptide array, immobilised linear 15-mers. The method, then: as §1

Assay [25] has as its target T25, ANGPTL4-derived peptide P36 (human).
T25 peptide: EKQHLRIQHLQSQFG
As to the kind of experiment: peptide array, immobilised linear 15-mers. The protocol: as §1

Assay [26] deals with T26, ANGPTL4-derived peptide P37 (human).
T26 peptide: HLRIQHLQSQFGLLD
As to the kind of experiment: peptide array, immobilised linear 15-mers. The protocol:
as §1

Assay [27] has as its target T27, ANGPTL4-derived peptide P38 (human).
T27 peptide: IQHLQSQFGLLDHKH
As to the kind of experiment: peptide array, immobilised linear 15-mers. The method, then: as §1

In assay [28] the target is T28, ANGPTL4-derived peptide P39 (human).
T28 peptide: LQSQFGLLDHKHLDH
As to the kind of experiment: peptide array, immobilised linear 15-mers. The method, then:
as §1

The target in assay [29] is T29, ANGPTL4-derived peptide P40 (human).
T29 peptide: QFGLLDHKHLDHEVA
As to the kind of experiment: peptide array, immobilised linear 15-mers. The method, then: as §1

The target of assay [30] is T30, ANGPTL4-derived peptide P42 (human).
T30 peptide: HKHLDHEVAKPARRK
As to the kind of experiment: peptide array, immobilised linear 15-mers. The method, then: as §1

Assay [31] deals with T31, ANGPTL4-derived peptide P43 (human).
T31 peptide: KHLDHEVAKPARRKR
Put plainly: peptide array, immobilised linear 15-mers. The protocol: as §1

Assay [32] addresses T1, Human ANGPTL4(26-406)-FLAG-His6-Avi. As to the kind of experiment: cell-based or functional assay. The source holds these as a separate data set.

B1: MOR022765 (antibody, human IgG1, lambda, V domains shown)
VH: EVQLVQSGAEVKKPGESLKISCKGSGYSFSTYWISWVRQMPGKGLEWMGIIDPSSSDTRYSPSFQGQVTISADKSISTAYLQWSSLKASDTAMYYCARVYGYVYMDVWGQGTLVTVSS
VL: SYELTQPLSVSVALGQTARITCSGDNLGKKYAYWYQQKPGQAPVLVIYDKTKRPSGIPERFSGSNSGNTATLTISRAQAGDEADYYCASYDWYSSSYVFGGGTKLTVLG
notes: human IgG1
As to B1, the “Reversal of human ANGPTL4 inhibition of human LPL EC50” value in [1] amounted to 3 nM. Further, the binding result in [2], in [3], in [4], in [5], in [6] and in assay [7] was “no binding” throughout. For the same molecule, the binding result in assay [8], in assay [9], in assay [10], in [11], in assay [12] and in assay [13] was “no binding” throughout. The binding result in [14], in assay [15], in [16], in assay [17], in assay [18] and in assay [19] was “no binding” throughout. Further, the binding result in assay [20], in [21], in [22], in [23], in assay [24] and in assay [25] was “no binding” each time. Further, the binding result in assay [26], in assay [27], in assay [28], in assay [29], in assay [30] and in [31] was “no binding” in each case.

B2: MOR021792 (antibody, human IgG1, lambda, V domains shown)
VH: QVQLLESGGGLVQPGGSLRLSCAASGFTFSDYAMDWVRQAPGKGLEWVSKISYDGSYTYYADSVKGRFTISRDNSKNTLYLQMNSLRAEDTAVYYCARPSMSYYIIPAGFDVWGQGTLVTVSS
VL: DIELTQPPSVSVSPGQTASITCSGDALGVKRASWYQQKPGQAPVLVIYKDNNRPSGIPERFSGSNSGNTATLTISGTQAEDEADYYCSVRTWSMNLYVFGGGTKLTVLG
With B2, the “EC50 (read off the curve) [1(A]” value in assay [32] lay in the range of 1 to 2 nM.
